Source: patent US20230149556A1, “COMBINATION THERAPY” (ADC Therapeutics SA, priority 2017, published 2023)

Test system: Ramos cells
Experiment: In vitro cytotoxicity MTS assay, chequerboard of ADC and rituximab (Example 4)
Format: cell-based
Details: single agent
Experimental: Ramos cells were cultured RPMI 1640 supplemented with 10% Hyclone FBS. The concentration and viability of cells from a sub-confluent (80-90% confluency) T75 flask were measured by trypan blue staining, and counted using the LUNA-II™ Automated Cell Counter. Cells were diluted to 2 x10^5/ml, dispensed (50 µl/well) into 96-well flat-bottom plates. A chequerboard was set up in combining 10-fold dilutions of ADCTx19 or ADCTx22 and 10-fold dilutions of rituximab in RPMI before 50 µl of each dilution was transferred into the 96-well plate containing the cells. This plate was incubated at 37° C. in a CO2-gassed incubator for 4 days. At the end of the incubation period, cell viability was measured by MTS assay. MTS (Promega) was dispensed (20 µl per well) into each well and incubated for 4 hours at 37C in the CO2-gassed incubator. Well absorbance was measured at 490 nm. IC50 was determined from the dose-response data using GraphPad Prism using the non-linear curve fit algorithm: sigmoidal dose-response curve with variable slope.

Substance: Rituximab: anti-CD20 agent, antibody, CAS 174722-31-7
- cytotoxic effect by itself: no significant cytotoxic effect
